Tested on: CC(=O)SCCNC(=O)CCNC(=O)[C@H](O)C(C)(C)COP(=O)(O)OP(=O)(O)OC[C@H]1O[C@@H](n2cnc3c(N)ncnc32)[C@H](O)[C@@H]1OP(=O)(O)O
Test: purified protein, by the assay type
Conditions: other: substrate varied, all other reagents saturating, 37° C., pH 7.5

Chain of recombinant human ACC2 (Homo sapiens; V2141I) (chain, as listed by the source V2141I): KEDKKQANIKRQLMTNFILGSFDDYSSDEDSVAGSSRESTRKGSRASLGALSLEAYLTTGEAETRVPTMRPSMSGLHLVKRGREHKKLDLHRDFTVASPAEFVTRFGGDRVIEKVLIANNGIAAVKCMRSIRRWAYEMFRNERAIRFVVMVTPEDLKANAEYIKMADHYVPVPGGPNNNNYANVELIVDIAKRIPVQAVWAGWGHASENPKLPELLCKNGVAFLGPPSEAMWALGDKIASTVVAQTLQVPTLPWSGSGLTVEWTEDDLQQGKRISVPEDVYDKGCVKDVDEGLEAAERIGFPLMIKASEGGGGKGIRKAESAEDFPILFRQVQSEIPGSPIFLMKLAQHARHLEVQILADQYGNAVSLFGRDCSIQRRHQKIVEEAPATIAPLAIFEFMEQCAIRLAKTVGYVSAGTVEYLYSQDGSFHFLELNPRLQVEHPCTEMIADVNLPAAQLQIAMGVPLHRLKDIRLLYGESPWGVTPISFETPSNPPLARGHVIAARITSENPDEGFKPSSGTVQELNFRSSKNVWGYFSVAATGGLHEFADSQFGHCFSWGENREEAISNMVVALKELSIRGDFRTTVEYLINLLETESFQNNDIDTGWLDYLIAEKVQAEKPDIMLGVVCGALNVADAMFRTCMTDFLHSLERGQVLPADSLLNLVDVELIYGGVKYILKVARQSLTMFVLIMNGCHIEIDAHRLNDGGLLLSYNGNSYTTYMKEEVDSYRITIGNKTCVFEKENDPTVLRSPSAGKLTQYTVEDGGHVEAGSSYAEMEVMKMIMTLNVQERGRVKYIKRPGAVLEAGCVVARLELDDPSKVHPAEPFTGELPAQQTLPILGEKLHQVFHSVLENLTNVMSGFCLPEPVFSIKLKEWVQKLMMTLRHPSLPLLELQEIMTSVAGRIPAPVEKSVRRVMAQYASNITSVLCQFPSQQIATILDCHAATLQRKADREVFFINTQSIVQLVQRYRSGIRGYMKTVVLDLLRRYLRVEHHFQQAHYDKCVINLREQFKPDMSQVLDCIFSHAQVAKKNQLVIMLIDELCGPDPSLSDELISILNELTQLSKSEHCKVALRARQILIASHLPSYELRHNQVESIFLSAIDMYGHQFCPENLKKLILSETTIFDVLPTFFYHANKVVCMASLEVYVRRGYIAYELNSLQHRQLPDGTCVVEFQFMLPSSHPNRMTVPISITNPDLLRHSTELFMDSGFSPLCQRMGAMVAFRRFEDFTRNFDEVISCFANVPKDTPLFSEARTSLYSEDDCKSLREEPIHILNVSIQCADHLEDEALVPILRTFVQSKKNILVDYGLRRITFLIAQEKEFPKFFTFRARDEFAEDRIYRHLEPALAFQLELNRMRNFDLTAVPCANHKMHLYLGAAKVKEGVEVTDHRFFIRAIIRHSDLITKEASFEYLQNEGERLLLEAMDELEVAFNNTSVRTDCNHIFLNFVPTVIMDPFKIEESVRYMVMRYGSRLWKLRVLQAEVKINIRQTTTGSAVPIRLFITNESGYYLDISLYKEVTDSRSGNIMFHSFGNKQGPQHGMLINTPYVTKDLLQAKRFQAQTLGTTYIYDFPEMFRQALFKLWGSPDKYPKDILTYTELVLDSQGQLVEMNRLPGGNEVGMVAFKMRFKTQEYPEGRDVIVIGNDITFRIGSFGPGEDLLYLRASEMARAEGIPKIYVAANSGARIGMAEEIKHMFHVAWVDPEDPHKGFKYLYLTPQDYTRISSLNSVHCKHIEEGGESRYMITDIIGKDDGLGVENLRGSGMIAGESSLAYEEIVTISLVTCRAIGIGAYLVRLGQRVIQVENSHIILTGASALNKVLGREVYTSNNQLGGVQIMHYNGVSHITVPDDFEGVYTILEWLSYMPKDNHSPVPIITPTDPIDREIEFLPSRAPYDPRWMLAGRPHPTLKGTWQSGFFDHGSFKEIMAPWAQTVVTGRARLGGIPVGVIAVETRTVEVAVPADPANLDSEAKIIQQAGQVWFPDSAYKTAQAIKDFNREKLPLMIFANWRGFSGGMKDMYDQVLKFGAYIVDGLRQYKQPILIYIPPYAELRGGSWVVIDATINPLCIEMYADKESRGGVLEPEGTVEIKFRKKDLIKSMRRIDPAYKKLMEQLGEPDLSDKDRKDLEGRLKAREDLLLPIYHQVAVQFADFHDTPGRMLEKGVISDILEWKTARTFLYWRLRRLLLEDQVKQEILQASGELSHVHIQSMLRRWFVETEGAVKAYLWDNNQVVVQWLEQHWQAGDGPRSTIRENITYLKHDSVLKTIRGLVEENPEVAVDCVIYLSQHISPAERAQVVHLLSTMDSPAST

Substance: recombinant human ACC2 (Homo sapiens; V2141I)
- Km: 23 µM

Reference: patent US7211423B2, “Acetyl CoA carboxylase 2 sequences and methods” (Bristol-Myers Squibb Co., priority 2004, dated 2007)
